Measured values: article PMC8677511

Target: TDP-43 recombinant (rTDP-43) (UniProt Q13148 1-414)
Test: pull-down

TDP-43 recombinant (rTDP-43), sequence (Q13148 whole entry): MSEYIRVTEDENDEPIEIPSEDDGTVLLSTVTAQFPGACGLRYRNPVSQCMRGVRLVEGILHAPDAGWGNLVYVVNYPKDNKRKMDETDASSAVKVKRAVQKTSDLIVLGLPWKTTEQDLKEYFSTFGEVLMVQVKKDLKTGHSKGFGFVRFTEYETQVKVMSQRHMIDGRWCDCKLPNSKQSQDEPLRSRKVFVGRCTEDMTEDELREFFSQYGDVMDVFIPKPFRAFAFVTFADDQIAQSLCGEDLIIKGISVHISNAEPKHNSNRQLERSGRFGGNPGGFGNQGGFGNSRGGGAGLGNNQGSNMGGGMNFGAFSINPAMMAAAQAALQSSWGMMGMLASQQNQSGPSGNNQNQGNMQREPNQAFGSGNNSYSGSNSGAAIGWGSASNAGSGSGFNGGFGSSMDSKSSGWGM

Binder | binding result
ACACACACACACACACACACACAC (ssRNA) [(AC)12] | no binding
UGUGUGUGUGUGCGCGUGUGCGUGUG (ssRNA) [GRN (nt262-288) probe] | binds
UUUUUUGUGUGUUAAUGGUGUGUG (ssRNA) [G3BP1 3' UTR probe (nt334-358)] | binds
